From the DeepSol protein solubility set

Experiment: soluble on expression in E. coli; label from the status in PepcDB or PDB records

| Sequence | soluble on expression in E. coli |
| --- | --- |
| MTSIGTGYDLSNSVFSPDGRNFQVEYAVKAVENGTTSIGIKCNDGVVFAVEKLITSKLLVPQKNVKIQVVDRHIGCVYSGLIPDGRHLVNRGREEAASFKKLYKTPIPIPAFADRLGQYVQAHTLYNSVRPFGVSTIFGGVDKNGAHLYMLEPSGSYWGYKGAATGKGRQSAKAELEKLVDHHPEGLSAREAVKQAAKIIYLAHEDNKEKDFELEISWCSLSETNGLHKFVKGDLLQEAIDFAQKEINGDDDEDEDDSDNVMSSDDENAPVATNANATTDQEGDIHLE | soluble |
| MADSTITIRGYVRDNGCSVAAESTNFTVDLMENAAKQFNNIGATTPVVPFRILLSPCGNAVSAVKVGFTGVADSHNANLLALENTVSAASGLGIQLLNEQQNQIPLNAPSSALSWTTLTPGKPNTLNFYARLMATQVPVTAGHINATATFTLEYQDNHHHHHHKQADSTITIRGYVRDN | soluble |
| MATGLGFFKLSFLLSLLSGGSDLLGPDAESGVAQIGKFPPSCNRIECPSYELVHSGNGYEIRRYNNTVWVSTEPIPDISLVDATRTAFFQLFAYIQGKNEYHQKIEMTAPVISQVSPSDGPFCESSFTVSFYVPKKNQPDPAPSENLHIQKWNSRYVAVRQFSGFVSDDSIGEQAAALDSSLKGTAWANAIAKSKEDGGVGSDSAYTVAQYNSPFEFSGRVNEIWLPFELDV | not soluble |
| MGSDKIHHHHHHMPDSPTTTSTLDLELLRTFVAVVDQHSFAQAGAHLARTQSSVTQHMQRLEQQTGVSLFQKKGRHKQLTESGRQLLRHARQMLSLNDDALNSLRDSSLSGVLRIGSPHDIADTILPPLLSHIARSAPRLRLEIDVGRSPFLMDDLHRGKVDMVISTREDPTLEGFALRTSPVWWICSAQYIHVPGEPLPLILVDEPSIYRRYALHALEAANIPWRQAYLASNLIGIKAATRAGLGVTPRSMEMLGPDMRVLGESEGLPRLPDVTYHLWIRPNTLNPLARKAYELIRASQSL | not soluble |
| MAHHHHHHMQYNLIGSKINNHYVVDPYVSLLYLKRAYKFLRLLKDSGGEAIILGNKHREVHLEHYFGNVQRKETCSLNILTNVTKRYDLLICTDLPLFYPYMRNVLIPKMLVADGATFVKYKTFLHAFDYFIPLTGEKLDRHLHYVLARRYLSGGELR | not soluble |
| MGSDKIHHHHHHCSEELDSQPMESYPEGGEPLDVVCKEYGISDYEDIELLSYYKNNLEQANFSGLREEKLWLASFNVKDKSPIINWTDELPFNRNRKIYKGYGEYEDVTIQQITMLQTMYFNPKEFVASLSYYFGKDYGYLALLFRHDTQTKEVQVKRSEILAGFQYSIINNDCCYSLSGDTLYIAEKGFGYSNVGTLYTSEFISHEEAIYTHRDNKGFFVGRRNFKLGEDLWHIQVPQLNDEPADAKIEVSVEDNSKRVWKYNVNIIHYDGTKKNVTFEVDIDNGTIKGENDYTSLIIGKWKKTSGDAVATHVTYKNDGTFEYTSTEDSSYKEVGKYKIDGNKLYEMYSDEEEWIINDILLLNSMTLSVQELEADGVTPTGQKYSYQRVE | not soluble |
| VVDFGALPPEINSARMYAGPGSASLVAAAKMWDSVASDLFSAASAFQSVVWGLTTGSWIGSSAGLMVAAASPYVAWMSVTAGQAELTAAQVRVAAAAYETAYGLTVPPPVIAENRAELMILIATNLLGQNTPAIAVNEAEYGEMWAQDAAAMFGYAATAATATEALLPFEDAPLITNPGGLLEQAVAVEEAIDTAAANQLMNNVPQALQQLAQPTKSIWPFDQLSELWKAISPHLSPLSNIVSMLNNHVSMTNSGVSMASTLHSMLKGFAPAAAQAVETAAQNGVQAMSSLGSQLGSSLGSSGLGAGVAANLGRAASVGSLSVPQAWAAANQAVTPAARALPLTSLTSAAQTAPGHMLGGLPLGQLTNSGGGFGGVSNALRMPPRAYVMPRVPAAG | soluble |
| MRLYMEMTNAQRLILSNQYFLMSQLDPNNANKYKRLQTIVERGYELHMRELNREFGCLPETECREIIDIMEMYHAMQESNRMLDDAARKDVDQRRLTFLGFDMATEAQLVNYVRFLVDSEGLYPQFDKGEHHFNSQMPMLAKYRRMLTTWRNCPRQYHLSGNELRQIMNA | not soluble |
| MGSDKIHHHHHHMTIDDFYSFITLYKTRNISDAAIALNITQSALSKRLRNMQQELDTALISTRNKRQLTITESGEVFFRYAQTLTAQYQLLQQELLDYRELRRGTIQIGSVPVMAQYGLASKMSQFMQDYPQINFSLAELEGADLLTQLQHQSFDLGILRDVQSQQLNHSQFDAVTLTDDELKVVLPSDHPLAHQTSIQLPDLRPFDVVTLSPGSGVYERISERYQQAGFTPNIRFSTPHIETLLAMIAHTDRVTFLFAKSVAPFMTADFVMRPFTDPIISHLQLVYPHGTLSPAAQRFIHYLTD | not soluble |
| MSLTTIKEIAQKSGYSPATVSRLLNNDPNLSITADTKNKILEIANKLGYWKDHQEKEIKPTIALLYRTNHKEQLQDEYFTSLKQALVETVKQKSMKMKTFYNVKDLIENASLFQGFIGVGAAPIENAELLELHKVLPNGVFVDTNPAPELFDSIRPNLSLTVKNAIDLFIKNDCKTIGFIGGVGPKHDHIQENDPRAVAFAEYMKVRNKDTNYMFVSGPFSVENGYELGKEVVKECEDNLPDAFLIASDTLSVGVLQAFNEENVNVPKDTAILSINNSNVVKYVSPPLSSYNINQQEMIDLALTMLTNLIIQPDRAHIDVNMNTDLVVRKSFVPKGEGHHHHHH | soluble |
| NYGVDFSDIAGQSTSIRALEIAASGGHNIILYGPPGSGKTMLAKRLPTILPPLSYKEALEVSKIYSITGQFDNKNLVFKRPFRAPHHTSSKISLVGGGSKLFPGEISLSHNGVLFLDELLEFKRSSIEVLRQPLEDKVIRFSKSSGNVTYPANFMFISAMNLCPCGNYG | not soluble |
| MQKSVLITGCSSGIGLDSALELKRQGFQILAGCRKPDDVARMNSMGFTGVLIDLDSPESVDRAADEVIALTDNRLYGIFNNAGYGVYGPLSTISREQMEQQFSSNFFGAHQLTMRLLPAMLPHGEGRIVMTSSVMGLISTPGRGAYAASKYALEAWSDALRMELRHTGIKVSLIEPGPIRTRFTDNVNQTQRDKPVENPGIAARFTRDPDAVVAKVRHAFASDKPRLRYPVTLVTWAVMALKRILPGRMLDKILQS | not soluble |
| MSLGNSFRQGANAYFDYVNTQGGIYGRALELLTYDDKYEPKLTESNVRHLIDKEGVFALMGTIGTPTAMAAIPVALEEQIPFLMPLSGARFLREPFNRLIFNLRPSYFEEIEAISSYLTEERGFKRIAIFYQNDSFGIEGLEGLTQSLDKRGLKIVAEGIYPRNTLSVSDAVYAIHPKSPEAIVMVGTYEASALFIQRYKELNPASPPLFVNISFVAATALAEALQGNMRQVLVSNVTPSPWDISNPLVREYHRLYVESMGHPPCFLSFEGFLSAKIIVEALHKTGPILSHKRFIKAMENLSPDFLSDLKLRFSATNHQAFEQVFITGYENGRFVTLKSYEGHHHHHH | not soluble |
| MVKLFIGNLPREATEQEIRSLFEQYGKVLECDIIKNYGFVHIEDKTAAEDAIRNLHHYKLHGVNINVEASKNKSKASTKLHVGNISPTCTNQELRAKFEEYGPVIECDIVKDYAFVHMERAEDAVEAIRGLDNTEFQGKRMHVQLSTSRLRTAPGMGDQSGCYRCGKEGHWSKECPVDRTGRVADFTEQYNEQYGAVRTPYTMGYGESMYYNDAYGALDYYKRYRVRSYEAVAAAAAASAYNYAEQTMSHLPQVQSTTVTSHLNSTSVDPYDRHLLPNSGAAATSAAMAAAAATTSSYYGRDRSPLRRAAAMLPTVGEGYGYGPESELSQASAATRNSLYDMARYEREQYVDRARYSAF | soluble |
| MVENIPLAEEEHNKWHQDAVSLHLEFGIPRTAAEDIVQQCDVCQENKMPSTLRGSNKRGIDHWQVDYTHYEDKIILVWVETNSGLIYAERVKGETGQEFRVQTMKWYAMFAPKSLQSDNGPAFVAESTQLLMKYLGIEHTTGIPWNPQSQALVERTHQTLKNTLEKLIPMFNAFESALAGTLITLNIKRKGGLGTSPMDIFIFNKEQQRIQQQSKSKQE | soluble |
| AHHHHHHGSSAKLERIVEEISVAFVGHEDVVRKVLSAALANGNVLFEDNPGLGKTLLAKAFAKVLGLEYRRVQFTPDLLPSDILGTKVWRPEKGTFEIVKGPIFTNVLLADEINRAPPKTQSALLEAMEERQVTIEGETFVLERPFFVIATQNPLEFEGTYPLPEAQLDRFLVRMSIGYPKNESEEVEILKARLRWGKDDPTTDLKPAITKSEFLKMQEDVERNVKIHEDILKYIVRIVRTIREDERVEAGPSPRGGLALMKLAKANAYVEGRDYVIPDDVKEFAIEALAHRIFLKPEYSLEKGIEIEIVREALESVPVPKDLKY | not soluble |
| GPGSMEPNFFNNSGLMLLCKDGSAVRAIDVLKDAEYVLMYFSAHWCPPCRTFTPMLKSFYETHHAKKKFEVVFMSSDRSEEEMMSYFRESHGDYYCLPYADARSMARVWGDTYKFKTIPTLLVFENANPRKLIARCGREMVIKDPLGNLFPWPDADAQQPAESFIFDYTRKAAIVLGISVLLYSLISRSL | not soluble |
| MQIFLLGLDNTTHTLDVDASTTLSAIKGVIGAGEEFSISYGSKVLSEELTLGECQIESLSTLSVNGRLLGGKVHGSLARAGKVRAQTPKVDKQDKKKKKRGRAFRRVQYTRRYVNVASGPGKKRGPNSNS | not soluble |
| MSKSVSIPQALSDLKRTSLRRLSSARGVGNKKTVVSTSTPLSGFVILVEREEKVVRLYGTAAERAGLSIGDEIVGVNDMKIEGKSYEEVTTYIQECIRRKIIQLKVRRRALEIPAENEASVFNCTNSNRMITDAYLVSVDKDHIKEVTKRLKK | not soluble |
| MGSDKIHHHHHHEPTKLTPENYFNTPAEANSFLTGIYAILSQPTFYGGDYMYLVAGDDLSHYGGSGRGPASTGLICNNATTSDNAVTAFWYALYSGINRANMFLENIDKVNGFDAGVKEQYIAEARFLRAFYYFNLVECWGDVPFKTVSTQSVTNLNIPRTDKQEIYDFIISEMADAAETGLKSASDLAYKPGRISQSTAWGILARVYLFRAGEHYREGRNATQAEKKDYFERASFYAQKVMTAGHKLAANYWDPFIDMCSDKYNTTANESIWEAEFAGNNTSDTQAEGRIGNIIGLAGPDLSSKSDVTGAKDPGYGYAFIYSTPKLYNLYVNNGDTKRFNWSIAPFEYKEAGGKNTGVTHREFEQGKLAEVMSQYGQQRGTYQYADDTEKTTATKNFSRMCGKYRREYEADKKDKNYTSINFPILRYADVLLMIAEAENEANNGPTTLAYQCMKEVRERAGLNELPDMTQEEFRQTVKDERAMELCFEYTRRFDLIRWGEYVKNMRALVTEAQSGNNWTQGPTNVYTYFNISSTYNYFPIPDAEMSVNKDITQNNPGW | not soluble |
| MSLTQRITMEDIARQSGVSLATVSLVLRDKPGINDETRRRVLDIARDLGYRKRLNHEKLVSQSLHNAGVIVKASIGDDSPLTNPFYAPIVAGIEAACRKMHINLMYATVPVDMDNHPQEMPRLLSEDHLDGVLLVGAFADATITKLLQREGIPAVLVDGYSHEHVYDSVVSDNFRAAYEAVSYLISYGHRHIGLIGTTKEAYPSIAERRKGYIQALTDHGIHDQYFGDCLLTMHEGSDTSSILLQRHPQITALFCANDMMAIGATQAARALHRQIPQDLSIIGFDNIDLAQHVAPALTTMHVDKVSMGRFAVQLLANRAEYPDQAPATVSLRPRLLERQSVQREGHHHHHH | soluble |
| MTQRLKDKLAVITGGANGIGRAIAERFAVEGADIAIADLVPAPEAEAAIRNLGRRVLTVKCDVSQPGDVEAFGKQVISTFGRCDILVNNAGIYPLIPFDELTFEQWKKTFEINVDSGFLMAKAFVPGMKRNGWGRIINLTSTTYWLKIEAYTHYISTKAANIGFTRALASDLGKDGITVNAIAPSLVRTATTEASALSAMFDVLPNMLQAIPRLQVPLDLTGAAAFLASDDASFITGQTLAVDGGMVRH | soluble |
